Assay results reported in US20230174672A1 (VEGA THERAPEUTICS, published 2023).

T1: human Protein S (human, UniProt P07225 42-676)
T1 construct: also called ProS; ProS1
T1 sequence: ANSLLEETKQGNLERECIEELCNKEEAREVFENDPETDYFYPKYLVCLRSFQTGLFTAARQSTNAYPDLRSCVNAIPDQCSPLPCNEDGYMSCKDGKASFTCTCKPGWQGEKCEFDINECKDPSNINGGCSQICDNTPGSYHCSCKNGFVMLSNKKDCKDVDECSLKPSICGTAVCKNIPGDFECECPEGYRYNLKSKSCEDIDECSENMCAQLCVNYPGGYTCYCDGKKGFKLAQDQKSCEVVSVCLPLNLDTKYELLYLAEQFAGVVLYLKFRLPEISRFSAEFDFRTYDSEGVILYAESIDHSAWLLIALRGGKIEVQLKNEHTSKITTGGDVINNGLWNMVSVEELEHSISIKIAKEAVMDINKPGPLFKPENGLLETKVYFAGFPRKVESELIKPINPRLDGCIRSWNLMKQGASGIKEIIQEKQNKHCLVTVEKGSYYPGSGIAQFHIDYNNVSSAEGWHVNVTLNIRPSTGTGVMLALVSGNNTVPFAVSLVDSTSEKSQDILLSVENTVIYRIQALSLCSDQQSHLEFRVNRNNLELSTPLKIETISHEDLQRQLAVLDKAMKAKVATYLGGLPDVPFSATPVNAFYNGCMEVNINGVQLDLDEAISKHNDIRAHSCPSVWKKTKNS

T2: Protein S-C4BP complex (human, UniProt P04003 49-597; P20851 18-252)
T2 construct: Bought C4BP preparation that contains Protein S precomplexed to human C4BP; also called ProS-C4BP Complex; C4BP-Protein S complex
T2 sequence 1: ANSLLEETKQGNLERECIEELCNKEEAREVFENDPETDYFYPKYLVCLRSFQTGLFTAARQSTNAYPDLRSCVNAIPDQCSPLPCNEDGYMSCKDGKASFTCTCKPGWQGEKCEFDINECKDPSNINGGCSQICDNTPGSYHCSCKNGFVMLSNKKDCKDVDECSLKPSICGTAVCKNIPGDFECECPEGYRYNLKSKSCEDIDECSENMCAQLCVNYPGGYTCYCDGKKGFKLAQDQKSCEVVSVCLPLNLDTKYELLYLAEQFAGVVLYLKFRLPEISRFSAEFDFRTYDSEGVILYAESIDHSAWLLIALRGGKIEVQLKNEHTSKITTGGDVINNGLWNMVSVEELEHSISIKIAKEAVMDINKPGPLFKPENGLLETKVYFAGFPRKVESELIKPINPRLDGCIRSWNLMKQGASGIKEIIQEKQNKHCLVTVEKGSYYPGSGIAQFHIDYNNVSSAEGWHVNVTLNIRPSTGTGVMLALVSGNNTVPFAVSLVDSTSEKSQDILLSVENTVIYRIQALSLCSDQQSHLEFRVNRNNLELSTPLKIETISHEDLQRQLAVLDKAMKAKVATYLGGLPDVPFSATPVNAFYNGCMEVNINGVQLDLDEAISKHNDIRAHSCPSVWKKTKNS
T2 sequence 2: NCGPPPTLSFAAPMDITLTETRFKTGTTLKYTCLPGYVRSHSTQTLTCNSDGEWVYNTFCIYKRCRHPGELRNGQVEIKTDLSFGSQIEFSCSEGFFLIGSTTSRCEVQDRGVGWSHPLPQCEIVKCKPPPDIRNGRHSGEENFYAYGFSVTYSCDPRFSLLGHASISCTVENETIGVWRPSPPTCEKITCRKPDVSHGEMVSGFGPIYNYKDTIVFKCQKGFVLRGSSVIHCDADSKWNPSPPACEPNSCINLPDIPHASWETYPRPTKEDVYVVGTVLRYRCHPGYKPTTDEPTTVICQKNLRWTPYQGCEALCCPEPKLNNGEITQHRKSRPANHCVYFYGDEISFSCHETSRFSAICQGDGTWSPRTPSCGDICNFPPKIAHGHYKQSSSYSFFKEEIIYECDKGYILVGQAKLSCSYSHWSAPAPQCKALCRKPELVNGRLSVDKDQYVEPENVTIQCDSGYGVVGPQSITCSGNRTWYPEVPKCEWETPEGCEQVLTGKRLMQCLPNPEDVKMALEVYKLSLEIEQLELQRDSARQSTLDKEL
T2 sequence 3: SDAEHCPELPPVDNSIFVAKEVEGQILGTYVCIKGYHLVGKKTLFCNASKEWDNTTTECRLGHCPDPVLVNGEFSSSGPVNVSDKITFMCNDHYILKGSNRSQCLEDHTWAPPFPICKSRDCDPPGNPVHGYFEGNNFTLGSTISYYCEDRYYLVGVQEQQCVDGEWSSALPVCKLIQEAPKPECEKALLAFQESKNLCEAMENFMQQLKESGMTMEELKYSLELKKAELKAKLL

T3: recombinant heavy chain Protein S (amino acids 42-296) (human, UniProt P07225 42-296)
T3 construct: Expressed and purified from HEK293 cells; No tags are stated; also called heavy chain of Protein S; Protein S heavy chain
T3 sequence: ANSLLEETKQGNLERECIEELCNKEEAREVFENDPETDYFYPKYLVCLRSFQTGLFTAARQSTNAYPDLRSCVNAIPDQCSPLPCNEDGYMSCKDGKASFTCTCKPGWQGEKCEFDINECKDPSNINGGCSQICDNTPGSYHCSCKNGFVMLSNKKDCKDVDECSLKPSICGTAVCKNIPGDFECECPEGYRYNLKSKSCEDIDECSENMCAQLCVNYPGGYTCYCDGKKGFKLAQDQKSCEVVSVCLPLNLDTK


Tests used:
human Protein S [1] = molecular target: T1, human Protein S; test: BLI, Octet; antibody on anti-human Fc capture probes, Protein S 7.81-500 nM, 4 mM calcium chloride
Method: (§1) Binding affinities of the Protein S antibodies provided herein were also further characterized using the Octet System (Sartorius). The binding of each antibody to both human and cynomolgus monkey (“cyno”) Protein S was determined. The human Fc antibodies were immobilized onto anti-human Fc capture probes by placing the probes into 10 µg/ml antibody solution in 10 mg/ml bovine serum albumin, 20 mM Tris pH 7.0, 150 mM NaCl, and 4 mM calcium chloride. […] Next, the probes were placed into buffer and the dissociation rates were measured.

[2] = molecular target: T4, cynomolgus monkey Protein S (cynomolgus monkey); test: as above
T4 construct: also called cyno Protein S
Method: as §1

Protein S-C4BP complex = molecular target: T2, Protein S-C4BP complex; test: Octet BLI, antibody captured on anti-human Fc probes; a dash indicates that the binding did not occur
Method: The Octet assay was used to determine the capability of the Protein S antibodies provided herein to bind to Protein S either alone, or when complexed to C4BP.
Using the Octet System (Sartorius), the binding of each antibody to both Protein S and Protein S in complex with C4BP was determined. It had previously been determined that the C4BP preparation from Complement Technologies contains Protein S precomplexed to human C4BP. […] Then the bound antibodies were placed into solutions containing either 75 µg/ml Protein S or 100 µg/ml C4BP (C4BP-Protein S complex).

human Protein S [3] = molecular target: T1, human Protein S; test: SPR, Biacore X100; antibody captured on anti-human IgG (Fc), purified Protein S 2-128 nM as analyte, HBS-EP + 5 mM CaCl2, 1:1 model
Method: Binding interaction analysis was obtained by Surface Plasmon Resonance in a Biacore X100 instrument. The human anti-IgG (Fc) antibody was immobilized to the carboxymethylated dextran membrane on the sensor chip surface (CM5) via the free amine method for a contact time of 420 seconds. Human anti-IgG antibody at 25 µg/mL in 0.15 M NaCl was immobilized to 9,785 RU in 10 mM sodium acetate pH 5.0. Each tested monoclonal antibody was captured at a fixed concentration (0.25 µg/mL) with immobilized human anti-IgG antibody.
The following experimental conditions were used: purified Protein S was injected at concentrations: 2-128 nM, 1:2-fold dilution. Dilution and running buffer were as follows: Hbs-EP + 5 mM CaCl₂. Regeneration was obtained by 3 M MgCl₂. Binding constants (ka, kd, and KD) were determined using the Biacore X100 evaluation software, assuming a 1:1 interaction of Protein S and the tested monoclonal antibody under investigation.

human Protein S [4] = molecular target: T1, human Protein S; test: ELISA, plate coated with human Protein S, 1 µg/ml antibody, 1 mM calcium chloride
Method: (§2) Calcium dependence of binding was determined using an ELISA based method. Briefly, high binding ELISA plates were coated with human Protein S. Then, buffer containing 1 µg/ml of antibody was applied to the well with either buffer containing 1 mM EDTA or 1 mM calcium chloride. If the level of binding of Protein S was reduced ([…] of the absorbance observed in the presence of calcium) when EDTA was added, it was concluded that the binding was calcium-dependent.

human Protein S [5] = molecular target: T1, human Protein S; test: ELISA, plate coated with human Protein S, 1 µg/ml antibody, 1 mM EDTA
Method: as §2

[6] = molecular target: T3, recombinant heavy chain Protein S …; test: ELISA on plate-coated recombinant Protein S heavy chain (aa 42-296), 1 mM calcium chloride
Method: (§3) Binding to the heavy chain of Protein S was determined using an ELISA based method. Briefly, high binding ELISA plates were coated with recombinant heavy chain Protein S expressed and purified from HEK293 cells. The “heavy chain” of Protein S represents a fragment of Protein S spanning amino acids 42-296. The coated plate was blocked with 1% casein solution. Then, buffer containing 1 µg/ml of antibody to be tested was applied to the well with buffer containing 1 mM calcium chloride.

[7] = molecular target: T3, recombinant heavy chain Protein S …; test: ELISA, plate coated with recombinant Protein S heavy chain (aa 42-296), 1 µg/ml antibody, 1 mM calcium chloride
Method: as §3

Row | Kd (human Protein S [1]) | koff (human Protein S [1]) | kon (human Protein S [1]) | Kd [2] | koff [2] | kon [2] | Kd (human Protein S [3]) | koff (human Protein S [3]) | kon (human Protein S [3]) | Binding to Protein S in CaCl2 (OD) (human Protein S [4]) | Binding to Protein S in EDTA (OD) (human Protein S [5]) | binding result [6] | Binding to heavy chain (OD) [7] | Binder | binding result (Protein S-C4BP complex)
1 | 16.8 nM | 0.00213 s⁻¹ | 127000 M⁻¹ s⁻¹ | 12.3 nM | 0.00132 s⁻¹ | 107000 M⁻¹ s⁻¹ | 31 nM | 0.00514 s⁻¹ | 167000 M⁻¹ s⁻¹ |  |  |  |  | Antibody 10 (antibody, human IgG4, V domains shown, also called Protein S Antibody with Human Fc; Combination 9) VH: EVQLLESGGGLVQPGGSLRLSCAASRFSFSSYAMSWVRQAPGKGLEWVSAISDSGSNTYYADSVKGLFTISRDNSKNTLYLQMNSLRAEDTAVYYCAKNYESGGYYTFFDYWGQGTLVTVST VL: EIVMTQSPATLSVFPGERATLSCRASQSVRSNLAWHQQKLGQAPRLLLYGASTRATGIPARFSGSGSGTEFTLAISSLQSEDFAVYYCQQYNSWPFTFGGGTKVGIK | no binding (tested: 100 µg/ml C4BP (C4BP-Protein S complex))
2 | 0.466 nM | 4.58e-05 s⁻¹ | 98500 M⁻¹ s⁻¹ | 0.349 nM | 3.15e-05 s⁻¹ | 90300 M⁻¹ s⁻¹ |  |  |  |  |  |  |  | Antibody 26 (antibody, human IgG4, V domains shown, also called Protein S Antibody with Human Fc; Combination 16) VH: EVQVVESGGGLVQPGGSLRLSCAASGFTLNSFWMSWVRQAPGKGLEWVANIKEDGSEKYYVDSVKGRFTISRDNAKNSLYLQMNGLRAEDTALYYCARETDILTAYYSDYYSYYGMDVWGQGTTVTVSA VL: DIQMTQSPSSLSASVRDRVTINCRASQSIRSYLNWYQQKPGKAPKLLIYAASSLQGGVPSRFSGSGSGTDFTLTISSLQPEDFATYYCQQSYSTPRTFGQGTKVEIK | no binding (tested: 100 µg/ml C4BP (C4BP-Protein S complex))
3 |  |  |  |  |  |  |  |  |  | 0.82 OD | 0.33 OD | no binding | 0.1 OD | Antibody 32 (antibody, V domains shown, Human variable region with a rat Fc domain; also called Protein S Antibody with Rat Fc; parental rat antibody of Antibody 26) VH: EVQVVESGGGLVQPGGSLRLSCAASGFTLNSFWMSWVRQAPGKGLEWVANIKEDGSEKYYVDSVKGRFTISRDNAKNSLYLQMNGLRAEDTALYYCARETDILTAYYSDYYSYYGMDVWGQGTTVTVSA VL: DIQMTQSPSSLSASVRDRVTINCRASQSIRSYLNWYQQKPGKAPKLLIYAASSLQGGVPSRFSGSGSGTDFTLTISSLQPEDFATYYCQQSYSTPRTFGQGTKVEIK | 
